Experimental data published in patent US20260243766A1 (published 2026).

Molecular target: R6A/Q72R
Experiment: SPR

Kd: 18.8 µM
B1: 10LH (scFv)
scFv: SRNGGDGQSVLTQPPSVSVSPGQTASITCSGDSLGNKYACWYQQKPGQSPVLVIYQDSKRPSGIPERFSGSNSGNTATLTISGTQAMDEADYYCQAWDSSRGYTVVFGTGTKVTVSSQTGGSGGGGSGGGGSGGGGSEVQLLESGGGLVQPGGSLRLSCAASGFTFDSYAMSWVRQAPGKGLEWVSAISGYGGSTYYADSVKGRFTISRDNSKNTLYLQMNSLRAEDTAVYYCAKYTYFLDAFDIWGQGTMVTVSSS
